{
  "source": "patent US20260193335A1",
  "about": "(ZOETIS SERVICES, published 2026)",
  "data": [
    {"biological_target": "T1, Feline FcRn (complex of FcRn-α subunit and β-microglobulin, C-terminal His tag) (feline, UniProt A0ABI7ZNY9 23-296; Q5MGS7 21-118)", "T1 construct": "treated here as one molecule", "assay": "SPR Biacore, biotin-FcRn on SA chip, pH 6", "experimental": "Feline FcRn was isolated, prepared and mutant Fc IgGs were assayed against feline FcRn according to Strietzel et. al., discussed above. Standard PCR was used to amplify feline FcRn-α subunit and β-microglobulin. FcRn-α subunit and β-microglobulin were co-transfected into HEK 293 cells and the FcRn complex was purified by IMAC affinity purification via the c-terminal His tag. FcRn complex was biotin labeled through BirA enzymatic biotinylatoin reaction. KD's were measured by Biacore T200 (GE Healthcare, Pittsburgh, PA, USA) or Biacore 8K (Cytiva, Marlborough, MA, USA) using a SA sensor chip.\nFcRn was captured on the surface of the sensor using a modified SA capture method. 10 mM MES; 150 mM NaCl; 0.005% Tween20; 0.5 mg/mL BSA; pH6 was used as capture, method running buffer and titrations. 1×HBS-P, 0.5 mg/mL BSA; pH7.4 was also used for method running buffer and titrations. Fc mutant IgGs were flowed over receptor surfaces and affinity was determined using T200 evaluation software or Biacore Insight Evaluation software. Blank runs containing buffer only were subtracted out from all runs. Flow cells were regenerated using 50 mM Tris pH8 or pH9. Runs were performed at 15° C.", "units": {"Kd": "nM"}, "values": [
      {"binder": "mAb3 (felinized anti-NGF antibody ZTS-768) S428N, feline IgG1a (antibody, also called mAb3 ID No. 100) heavy: DVQLVESGGDLVKPGGSLRLTCVASGFTYSNYWMHWVRQAPGKGLQWVARIDPYGGGTKHNEKFKRRFTISRDNAKNTLYLQMNSLKTEDTATYYCVRSGYDYYFDVWGQGTLVTVSSASTTAPSVFPLAPSCGTTSGATVALACLVLGYFPEPVTVSWNSGALTSGVHTFPAVLQASGLYSLSSMVTVPSSRWLSDTFTCNVAHPPSNTKVDKTVRKTDHPPGPKPCDCPKCPPPEMLGGPSIFIFPPKPKDTLSISRTPEVTCLVVDLGPDDSDVQITWFVDNTQVYTAKTSPREEQFNSTYRVVSVLPILHQDWLKGKEFKCKVNSKSLPSPIERTISKAKGQPHEPQVYVLPPAQEELSRNKVSVTCLIKSFHPPDIAVEWEITGQPEPENNYRTTPPQLDSDGTYFVYSKLSVDRSHWQRGNTYTCSVNHEALHSHHTQKSLTQSPGK light: EIQMTQSPSSLSASPGDRVTITCRASENIYSFLAWYQQKPGKVPKLLIYNANTLAEGVPSRFSGSGSGTDFTLTISSLEPEDAATYYCQHHFGTPFTFGSGTKLEIKRSDAQPSVFLFQPSLDELHTGSASIVCILNDFYPKEVNVKWKVDGVVQNKGIQESTTEQNSKDSTYSLSSTLTMSSTEYQSHEKFSCEVTHKSLASTLVKSFQRSECQRE", "Kd": 11.2},
      {"binder": "mAb3 (felinized anti-NGF antibody ZTS-768) S428P, feline IgG1a (antibody, also called mAb3 ID No. 101) heavy: DVQLVESGGDLVKPGGSLRLTCVASGFTYSNYWMHWVRQAPGKGLQWVARIDPYGGGTKHNEKFKRRFTISRDNAKNTLYLQMNSLKTEDTATYYCVRSGYDYYFDVWGQGTLVTVSSASTTAPSVFPLAPSCGTTSGATVALACLVLGYFPEPVTVSWNSGALTSGVHTFPAVLQASGLYSLSSMVTVPSSRWLSDTFTCNVAHPPSNTKVDKTVRKTDHPPGPKPCDCPKCPPPEMLGGPSIFIFPPKPKDTLSISRTPEVTCLVVDLGPDDSDVQITWFVDNTQVYTAKTSPREEQFNSTYRVVSVLPILHQDWLKGKEFKCKVNSKSLPSPIERTISKAKGQPHEPQVYVLPPAQEELSRNKVSVTCLIKSFHPPDIAVEWEITGQPEPENNYRTTPPQLDSDGTYFVYSKLSVDRSHWQRGNTYTCSVPHEALHSHHTQKSLTQSPGK light: EIQMTQSPSSLSASPGDRVTITCRASENIYSFLAWYQQKPGKVPKLLIYNANTLAEGVPSRFSGSGSGTDFTLTISSLEPEDAATYYCQHHFGTPFTFGSGTKLEIKRSDAQPSVFLFQPSLDELHTGSASIVCILNDFYPKEVNVKWKVDGVVQNKGIQESTTEQNSKDSTYSLSSTLTMSSTEYQSHEKFSCEVTHKSLASTLVKSFQRSECQRE", "Kd": 17.8},
      {"binder": "mAb3 (felinized anti-NGF antibody ZTS-768) S428Q, feline IgG1a (antibody) heavy: DVQLVESGGDLVKPGGSLRLTCVASGFTYSNYWMHWVRQAPGKGLQWVARIDPYGGGTKHNEKFKRRFTISRDNAKNTLYLQMNSLKTEDTATYYCVRSGYDYYFDVWGQGTLVTVSSASTTAPSVFPLAPSCGTTSGATVALACLVLGYFPEPVTVSWNSGALTSGVHTFPAVLQASGLYSLSSMVTVPSSRWLSDTFTCNVAHPPSNTKVDKTVRKTDHPPGPKPCDCPKCPPPEMLGGPSIFIFPPKPKDTLSISRTPEVTCLVVDLGPDDSDVQITWFVDNTQVYTAKTSPREEQFNSTYRVVSVLPILHQDWLKGKEFKCKVNSKSLPSPIERTISKAKGQPHEPQVYVLPPAQEELSRNKVSVTCLIKSFHPPDIAVEWEITGQPEPENNYRTTPPQLDSDGTYFVYSKLSVDRSHWQRGNTYTCSVQHEALHSHHTQKSLTQSPGK light: EIQMTQSPSSLSASPGDRVTITCRASENIYSFLAWYQQKPGKVPKLLIYNANTLAEGVPSRFSGSGSGTDFTLTISSLEPEDAATYYCQHHFGTPFTFGSGTKLEIKRSDAQPSVFLFQPSLDELHTGSASIVCILNDFYPKEVNVKWKVDGVVQNKGIQESTTEQNSKDSTYSLSSTLTMSSTEYQSHEKFSCEVTHKSLASTLVKSFQRSECQRE", "Kd": 71.3},
      {"binder": "mAb3 (felinized anti-NGF antibody ZTS-768) S428R, feline IgG1a (antibody, also called mAb3 ID No. 103) heavy: DVQLVESGGDLVKPGGSLRLTCVASGFTYSNYWMHWVRQAPGKGLQWVARIDPYGGGTKHNEKFKRRFTISRDNAKNTLYLQMNSLKTEDTATYYCVRSGYDYYFDVWGQGTLVTVSSASTTAPSVFPLAPSCGTTSGATVALACLVLGYFPEPVTVSWNSGALTSGVHTFPAVLQASGLYSLSSMVTVPSSRWLSDTFTCNVAHPPSNTKVDKTVRKTDHPPGPKPCDCPKCPPPEMLGGPSIFIFPPKPKDTLSISRTPEVTCLVVDLGPDDSDVQITWFVDNTQVYTAKTSPREEQFNSTYRVVSVLPILHQDWLKGKEFKCKVNSKSLPSPIERTISKAKGQPHEPQVYVLPPAQEELSRNKVSVTCLIKSFHPPDIAVEWEITGQPEPENNYRTTPPQLDSDGTYFVYSKLSVDRSHWQRGNTYTCSVRHEALHSHHTQKSLTQSPGK light: EIQMTQSPSSLSASPGDRVTITCRASENIYSFLAWYQQKPGKVPKLLIYNANTLAEGVPSRFSGSGSGTDFTLTISSLEPEDAATYYCQHHFGTPFTFGSGTKLEIKRSDAQPSVFLFQPSLDELHTGSASIVCILNDFYPKEVNVKWKVDGVVQNKGIQESTTEQNSKDSTYSLSSTLTMSSTEYQSHEKFSCEVTHKSLASTLVKSFQRSECQRE", "Kd": 27.3},
      {"binder": "mAb3 (felinized anti-NGF antibody ZTS-768) S428T, feline IgG1a (antibody, also called mAb3 ID No. 104) heavy: DVQLVESGGDLVKPGGSLRLTCVASGFTYSNYWMHWVRQAPGKGLQWVARIDPYGGGTKHNEKFKRRFTISRDNAKNTLYLQMNSLKTEDTATYYCVRSGYDYYFDVWGQGTLVTVSSASTTAPSVFPLAPSCGTTSGATVALACLVLGYFPEPVTVSWNSGALTSGVHTFPAVLQASGLYSLSSMVTVPSSRWLSDTFTCNVAHPPSNTKVDKTVRKTDHPPGPKPCDCPKCPPPEMLGGPSIFIFPPKPKDTLSISRTPEVTCLVVDLGPDDSDVQITWFVDNTQVYTAKTSPREEQFNSTYRVVSVLPILHQDWLKGKEFKCKVNSKSLPSPIERTISKAKGQPHEPQVYVLPPAQEELSRNKVSVTCLIKSFHPPDIAVEWEITGQPEPENNYRTTPPQLDSDGTYFVYSKLSVDRSHWQRGNTYTCSVTHEALHSHHTQKSLTQSPGK light: EIQMTQSPSSLSASPGDRVTITCRASENIYSFLAWYQQKPGKVPKLLIYNANTLAEGVPSRFSGSGSGTDFTLTISSLEPEDAATYYCQHHFGTPFTFGSGTKLEIKRSDAQPSVFLFQPSLDELHTGSASIVCILNDFYPKEVNVKWKVDGVVQNKGIQESTTEQNSKDSTYSLSSTLTMSSTEYQSHEKFSCEVTHKSLASTLVKSFQRSECQRE", "Kd": 25.8},
      {"binder": "mAb3 (felinized anti-NGF antibody ZTS-768) S428V, feline IgG1a (antibody, also called mAb3 ID No. 105) heavy: DVQLVESGGDLVKPGGSLRLTCVASGFTYSNYWMHWVRQAPGKGLQWVARIDPYGGGTKHNEKFKRRFTISRDNAKNTLYLQMNSLKTEDTATYYCVRSGYDYYFDVWGQGTLVTVSSASTTAPSVFPLAPSCGTTSGATVALACLVLGYFPEPVTVSWNSGALTSGVHTFPAVLQASGLYSLSSMVTVPSSRWLSDTFTCNVAHPPSNTKVDKTVRKTDHPPGPKPCDCPKCPPPEMLGGPSIFIFPPKPKDTLSISRTPEVTCLVVDLGPDDSDVQITWFVDNTQVYTAKTSPREEQFNSTYRVVSVLPILHQDWLKGKEFKCKVNSKSLPSPIERTISKAKGQPHEPQVYVLPPAQEELSRNKVSVTCLIKSFHPPDIAVEWEITGQPEPENNYRTTPPQLDSDGTYFVYSKLSVDRSHWQRGNTYTCSVVHEALHSHHTQKSLTQSPGK light: EIQMTQSPSSLSASPGDRVTITCRASENIYSFLAWYQQKPGKVPKLLIYNANTLAEGVPSRFSGSGSGTDFTLTISSLEPEDAATYYCQHHFGTPFTFGSGTKLEIKRSDAQPSVFLFQPSLDELHTGSASIVCILNDFYPKEVNVKWKVDGVVQNKGIQESTTEQNSKDSTYSLSSTLTMSSTEYQSHEKFSCEVTHKSLASTLVKSFQRSECQRE", "Kd": 17.1},
      {"binder": "mAb3 (felinized anti-NGF antibody ZTS-768) S428W, feline IgG1a (antibody) heavy: DVQLVESGGDLVKPGGSLRLTCVASGFTYSNYWMHWVRQAPGKGLQWVARIDPYGGGTKHNEKFKRRFTISRDNAKNTLYLQMNSLKTEDTATYYCVRSGYDYYFDVWGQGTLVTVSSASTTAPSVFPLAPSCGTTSGATVALACLVLGYFPEPVTVSWNSGALTSGVHTFPAVLQASGLYSLSSMVTVPSSRWLSDTFTCNVAHPPSNTKVDKTVRKTDHPPGPKPCDCPKCPPPEMLGGPSIFIFPPKPKDTLSISRTPEVTCLVVDLGPDDSDVQITWFVDNTQVYTAKTSPREEQFNSTYRVVSVLPILHQDWLKGKEFKCKVNSKSLPSPIERTISKAKGQPHEPQVYVLPPAQEELSRNKVSVTCLIKSFHPPDIAVEWEITGQPEPENNYRTTPPQLDSDGTYFVYSKLSVDRSHWQRGNTYTCSVWHEALHSHHTQKSLTQSPGK light: EIQMTQSPSSLSASPGDRVTITCRASENIYSFLAWYQQKPGKVPKLLIYNANTLAEGVPSRFSGSGSGTDFTLTISSLEPEDAATYYCQHHFGTPFTFGSGTKLEIKRSDAQPSVFLFQPSLDELHTGSASIVCILNDFYPKEVNVKWKVDGVVQNKGIQESTTEQNSKDSTYSLSSTLTMSSTEYQSHEKFSCEVTHKSLASTLVKSFQRSECQRE", "Kd": 18.5},
      {"binder": "mAb3 (felinized anti-NGF antibody ZTS-768) S428Y and S434F, feline IgG1a (antibody, also called mAb3 ID No. 115) heavy: DVQLVESGGDLVKPGGSLRLTCVASGFTYSNYWMHWVRQAPGKGLQWVARIDPYGGGTKHNEKFKRRFTISRDNAKNTLYLQMNSLKTEDTATYYCVRSGYDYYFDVWGQGTLVTVSSASTTAPSVFPLAPSCGTTSGATVALACLVLGYFPEPVTVSWNSGALTSGVHTFPAVLQASGLYSLSSMVTVPSSRWLSDTFTCNVAHPPSNTKVDKTVRKTDHPPGPKPCDCPKCPPPEMLGGPSIFIFPPKPKDTLSISRTPEVTCLVVDLGPDDSDVQITWFVDNTQVYTAKTSPREEQFNSTYRVVSVLPILHQDWLKGKEFKCKVNSKSLPSPIERTISKAKGQPHEPQVYVLPPAQEELSRNKVSVTCLIKSFHPPDIAVEWEITGQPEPENNYRTTPPQLDSDGTYFVYSKLSVDRSHWQRGNTYTCSVYHEALHFHHTQKSLTQSPGK light: EIQMTQSPSSLSASPGDRVTITCRASENIYSFLAWYQQKPGKVPKLLIYNANTLAEGVPSRFSGSGSGTDFTLTISSLEPEDAATYYCQHHFGTPFTFGSGTKLEIKRSDAQPSVFLFQPSLDELHTGSASIVCILNDFYPKEVNVKWKVDGVVQNKGIQESTTEQNSKDSTYSLSSTLTMSSTEYQSHEKFSCEVTHKSLASTLVKSFQRSECQRE", "Kd": 2.94}
    ]}
  ]
}
